# Measurements published in publication doi:10.1101/2023.05.23.541938.
# pKd: −log10 of the molar value.
# Target: TgPKS2 thioester reductase domain (TgTR) (Toxoplasma gondii)
# Experiment: ITC
substance,measurement,value
holo-TgACP4 (domain or fragment),pKd,5.24
